What was measured:
Experiment in all cases: cell-based or functional assay
[1] = target: HIV-2 strain 7312A envelope polypeptide (wild-type) (HIV-2 (isolate 7312A))
[2] = target: HIV-1 env glycoprotein (YU2) (HIV-1 (YU2)) (UniProt P35961)
[3] = target: HIV-2 7312A envelope with site-directed mutations 660 (K to A), 662 (N to D), 663 (S to K) and 665 (D to A) of SEQ ID NO:2 (HIV-2 (isolate 7312A))
[4] = target: HIV-2 UC1 envelope polypeptide (wild-type) (HIV-2 (strain UC1)) (UniProt Q76638)
[5] = target: HIV-2 7312A envelope with site-directed substitutions at 675 (L to I) and 676 (A to T) (HXB2 numbering) (HIV-2 (isolate 7312A))
[6] = target: HIV-2 ST envelope polypeptide (wild-type) (HIV-2 (strain ST)) (UniProt P20872)

Row | Substance | neutralization IC50 (JC53bl-13 HIV entry assay) [1] | neutralization IC50 (JC53bl-13 HIV entry assay) [2] | neutralization IC50 (JC53bl-13 HIV entry assay) [3] | neutralization IC50 (JC53bl-13 HIV entry assay) [4] | neutralization IC50 (JC53bl-13 HIV entry assay) [5] | neutralization IC50 (JC53bl-13 HIV entry assay) [6]
1 | 2F5 monoclonal antibody | > 50 µg/mL | 25 µg/mL | < 0.1 µg/mL |  |  | 
2 | 4E10 monoclonal antibody | > 50 µg/mL | 25 µg/mL |  | 1.2 µg/mL | 0.8 µg/mL | 0.1 µg/mL
3 | b12 monoclonal antibody | > 50 µg/mL | 3 µg/mL |  |  |  | 
